Test results taken from IntAct's records for PubMed 15678106.

B1: Tumor protein p73 (Homo sapiens), O15350-1 (parent)
chain: MAQSTATSPDGGTTFEHLWSSLEPDSTYFDLPQSSRGNNEVVGGTDSSMDVFHLEGMTTSVMAQFNLLSSTMDQMSSRAASASPYTPEHAASVPTHSPYAQPSSTFDTMSPAPVIPSNTDYPGPHHFEVTFQQSSTAKSATWTYSPLLKKLYCQIAKTCPIQIKVSTPPPPGTAIRAMPVYKKAEHVTDVVKRCPNHELGRDFNEGQSAPASHLIRVEGNNLSQYVDDPVTGRQSVVVPYEPPQVGTEFTTILYNFMCNSSCVGGMNRRPILIIITLEMRDGQVLGRRSFEGRICACPGRDRKADEDHYREQQALNESSAKNGAASKRAFKQSPPAVPALGAGVKKRRHGDEDTYYLQVRGRENFEILMKLKESLELMELVPQPLVDSYRQQQQLLQRPSHLQPPSYGPVLSPMNKVHGGMNKLPSVNQLVGQPPPHSSAATPNLGPVGPGMLNNHGHAVPANGEMSSSHSAQSMVSGSHCTPPPPYHADPSLVSFLTGLGCPNCIEYFTSQGLQSIYHLQNLTIEDLGALKIPEQYRMTIWRGLQDLKQGHDYSTAQQLLRSSNAATISIGGSGELQRQRVMEAVHFRVRHTITIPNRGGPGGGPDEWADFGFDLPDCKARKQPIKEEFTEAEIH

Variants of: B1
Conditions: with itch_human ITCH

| Variant | effect of a mutation on the interaction |
| --- | --- |
| Y487F | disrupting interaction |
